This note sets out measurements from US20060122119A1, “Peptides for use in antitumor immunotherapy” (Institut Nat'l De La Sante Et De La Recherche Med., priority 2002, published 2006).

Where only a bound is given, the exact number is not on record here.

The target of assay [1] is HLA-B*3501 (human). The note with it: remark: other sources report otherwise.
Assay [2] concerns the target HLA-B*3501 (human). The conditions noted are these: remark: other sources report otherwise. This is another data set of the same source.

EVDPIGHLY [MAGE-A3 peptide 168-176 …] yielded an RA (relative affinity) in the assay with HLA-B*3501 (human) [1] of 2.3. Moreover, in the assay with HLA-B*3501 (human) [2], the Stability (half-life of the peptide on HLA-B*35) was more than 6 h.
